# Source: paper PMC9352680, “A comprehensive thermodynamic model for RNA binding by the Saccharomyces cerevisiae Pumilio protein PUF4”
# Positions count from the first letter of the chain named. In names and notes the source's numbering stands.
# T1: PUF4 RNA-binding domain (Saccharomyces cerevisiae, UniProt P25339 537-888)
# T1 sequence: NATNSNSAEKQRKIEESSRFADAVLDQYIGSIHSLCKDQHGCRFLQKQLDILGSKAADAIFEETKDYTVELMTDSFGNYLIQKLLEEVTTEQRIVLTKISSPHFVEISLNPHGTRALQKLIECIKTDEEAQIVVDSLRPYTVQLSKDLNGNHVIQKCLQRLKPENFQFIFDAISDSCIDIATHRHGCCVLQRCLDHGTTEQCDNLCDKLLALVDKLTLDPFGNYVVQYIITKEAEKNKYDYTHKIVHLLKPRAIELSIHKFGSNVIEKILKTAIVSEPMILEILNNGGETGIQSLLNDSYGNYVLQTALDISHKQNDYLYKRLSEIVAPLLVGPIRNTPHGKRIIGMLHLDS
# B1: Id_ii_S2_P5E.4_K5.3_C5.2_[T-1A]_H5.3_A5.1_F5.1_T5.2_[T11C]_[A12T] (ssRNA)
# RNA: UUUGAUUAAUAUGAUAUCGUUCUUUCUCAACACUUAUUACUUUCUUUCUCGAUAUCAUAUUAAUCUUU
# B2: Id_ii_S2_P5E.4_K5.3_C5.2_H5.3_A5.1_F5.1_T5.2_[T11A]_[A12C] (ssRNA)
# RNA: B1 RNA with A29U, C40A, U41C
# B3: Id_ii_S2_P5E.4_K5.3_C5.2_[T-1A]_H5.3_A5.1_F5.1_T5.2 (ssRNA)
# RNA: B1 RNA with C40U, U41A
# B4: Id_ii_S2_P5E.4_K5.3_C5.2_H5.3_A5.1_F5.1_T5.2_[T11A]_[A12T] (ssRNA)
# RNA: B1 RNA with A29U, C40A
# B5: Id_ii_S2_P5E.4_K5.3_C5.2_H5.3_A5.1_F5.1_T5.2_[A12T] (ssRNA)
# RNA: B1 RNA with A29U, C40U
# B6: Id_ii_S2_P5E.4_K5.3_C5.2_[T-1A]_H5.3_A5.1_F5.1_T5.2_[A12C] (ssRNA)
# RNA: B1 RNA with C40U, U41C
# B7: Id_ii_S2_P5E.4_K5.3_C5.2_H5.3_A5.1_F5.1_T5.2_[T11G]_[A12C] (ssRNA)
# RNA: B1 RNA with A29U, C40G, U41C
# B8: Id_ii_S2_P5E.4_K5.3_C5.2_H5.3_A5.1_F5.1_T5.2_[T11C] (ssRNA)
# RNA: B1 RNA with A29U, U41A
# B9: Id_ii_S2_P5E.4_K5.3_C5.2_[T-1A]_H5.3_A5.1_F5.1_T5.2_[T11C] (ssRNA)
# RNA: B1 RNA with U41A
# B10: Id_ii_S2_P5E.4_K5.3_C5.2_H5.3_A5.1_F5.1_T5.2_[T11C]_[A12T] (ssRNA)
# RNA: B1 RNA with A29U
# B11: Id_ii_S2_P5E.4_K5.3_C5.2_H5.3_A5.1_F5.1_T5.2 (ssRNA)
# RNA: B1 RNA with A29U, C40U, U41A
# B12: Id_ii_S2_P5E.4_K5.3_C5.2_[T-1A]_H5.3_A5.1_F5.1_T5.2_[A12T] (ssRNA)
# RNA: B1 RNA with C40U
# B13: Id_ii_S2_P5E.4_K5.3_C5.2_H5.3_A5.1_F5.1_T5.2_[T11C]_[A12C] (ssRNA)
# RNA: B1 RNA with A29U, U41C
# B14: Id_ii_S2_P5E.4_K5.3_C5.2_[T-1A]_H5.3_A5.1_F5.1_T5.2_[T11A]_[A12T] (ssRNA)
# RNA: B1 RNA with C40A
# B15: Id_ii_S2_P5E.4_K5.3_C5.2_H5.3_A5.1_F5.1_T5.2_[A12C] (ssRNA)
# RNA: B1 RNA with A29U, C40U, U41C
# Target: T1, PUF4 RNA-binding domain
# Experiment: Mg; RNA-MaP; 20 mM Na-HEPES pH 7.4, 30 mM KOAc, 0.75 mM MgCl2, 0.1% Tween-20, 5% glycerol, 0.1 mg/mL BSA, 2 mM DTT; 25 C; 0.0125-409.6 nM protein
# Conditions: tags: N-His6-TEV cleaved; C-SNAP kept, Cy3B-labelled; label: tethered on chip by stalled RNA polymerase
row,Binder,Kd [nM]
1,ACAAACAGUAUAUAUAACACAAAC (ssRNA) [Id_ii_S3_P3E.3_K3.2_C3.2_[C-2A]_[T-1G]_H3.2_A3.1_F3.1_T3.2_[T9A]_[A10C]],522
2,ACAAACGAUAUAUAUAACACAAAC (ssRNA) [Id_ii_S3_P3E.3_K3.2_C3.2_[C-2G]_[T-1A]_H3.2_A3.1_F3.1_T3.2_[T9A]_[A10C]],969
3,ACAAACGUUAUAUAUAUUACAAAC (ssRNA) [Id_ii_S3_P3E.3_K3.2_C3.2_[C-2G]_H3.2_A3.1_F3.1_T3.2_[A10T]],154
4,ACAAACAGUAUAUAUACCACAAAC (ssRNA) [Id_ii_S3_P3E.3_K3.2_C3.2_[C-2A]_[T-1G]_H3.2_A3.1_F3.1_T3.2_[T9C]_[A10C]],1920
5,ACAAACUCUAUAUAUAAAACAAAC (ssRNA) [Id_ii_S3_P3E.3_K3.2_C3.2_[C-2T]_[T-1C]_H3.2_A3.1_F3.1_T3.2_[T9A]],932
6,ACAAACUCUAUAUAUAACACAAAC (ssRNA) [Id_ii_S3_P3E.3_K3.2_C3.2_[C-2T]_[T-1C]_H3.2_A3.1_F3.1_T3.2_[T9A]_[A10C]],599
7,ACAAACGUUAUAUAUAAUACAAAC (ssRNA) [Id_ii_S3_P3E.3_K3.2_C3.2_[C-2G]_H3.2_A3.1_F3.1_T3.2_[T9A]_[A10T]],660
8,ACAAACGAUAUAUAUAGUACAAAC (ssRNA) [Id_ii_S3_P3E.3_K3.2_C3.2_[C-2G]_[T-1A]_H3.2_A3.1_F3.1_T3.2_[T9G]_[A10T]],62.3
9,ACAAACGGUAUAUAUAUGACAAAC (ssRNA) [Id_ii_S3_P3E.3_K3.2_C3.2_[C-2G]_[T-1G]_H3.2_A3.1_F3.1_T3.2_[A10G]],552
10,ACAAACGUUAUAUAUAGUACAAAC (ssRNA) [Id_ii_S3_P3E.3_K3.2_C3.2_[C-2G]_H3.2_A3.1_F3.1_T3.2_[T9G]_[A10T]],292
11,UCUCUUUGUAUUCUGAUCUCUU (ssRNA) [Ib_S1_P5E.1_K5.1_C5.1_H5.1_A5.1_[A7C]_F5.1_[T9G]_T5.1],60.1
12,ACAAACUUUAUAUAUACAACAAAC (ssRNA) [Id_ii_S3_P3E.3_K3.2_C3.2_[C-2T]_H3.2_A3.1_F3.1_T3.2_[T9C]],925
13,ACAAACGCUAUAUAUAACACAAAC (ssRNA) [Id_ii_S3_P3E.3_K3.2_C3.2_[C-2G]_[T-1C]_H3.2_A3.1_F3.1_T3.2_[T9A]_[A10C]],1130
14,ACAAACUUUAUAUAUAACACAAAC (ssRNA) [Id_ii_S3_P3E.3_K3.2_C3.2_[C-2T]_H3.2_A3.1_F3.1_T3.2_[T9A]_[A10C]],522
15,ACAAACUUUAUAUAUAAUACAAAC (ssRNA) [Id_ii_S3_P3E.3_K3.2_C3.2_[C-2T]_H3.2_A3.1_F3.1_T3.2_[T9A]_[A10T]],149
16,ACAAACACUAUAUAUACGACAAAC (ssRNA) [Id_ii_S3_P3E.3_K3.2_C3.2_[C-2A]_[T-1C]_H3.2_A3.1_F3.1_T3.2_[T9C]_[A10G]],1040
17,ACAAACUAUAUAUAUAACACAAAC (ssRNA) [Id_ii_S3_P3E.3_K3.2_C3.2_[C-2T]_[T-1A]_H3.2_A3.1_F3.1_T3.2_[T9A]_[A10C]],376
18,ACAAACGAUAUAUAUAAGACAAAC (ssRNA) [Id_ii_S3_P3E.3_K3.2_C3.2_[C-2G]_[T-1A]_H3.2_A3.1_F3.1_T3.2_[T9A]_[A10G]],786
19,UCUCUUUGUAUUUUGAUCUCUU (ssRNA) [Ib_S1_P5E.1_K5.1_C5.1_H5.1_A5.1_[A7T]_F5.1_[T9G]_T5.1],17.1

row,Binder,Kd [nM]
1,ACAAACGGUAUAUAUAACACAAAC (ssRNA) [Id_ii_S3_P3E.3_K3.2_C3.2_[C-2G]_[T-1G]_H3.2_A3.1_F3.1_T3.2_[T9A]_[A10C]],509
2,ACAAACUCUAUAUAUAAUACAAAC (ssRNA) [Id_ii_S3_P3E.3_K3.2_C3.2_[C-2T]_[T-1C]_H3.2_A3.1_F3.1_T3.2_[T9A]_[A10T]],72
3,ACAAACGCUAUAUAUAUUACAAAC (ssRNA) [Id_ii_S3_P3E.3_K3.2_C3.2_[C-2G]_[T-1C]_H3.2_A3.1_F3.1_T3.2_[A10T]],45.1
4,ACAAACACUAUAUAUACCACAAAC (ssRNA) [Id_ii_S3_P3E.3_K3.2_C3.2_[C-2A]_[T-1C]_H3.2_A3.1_F3.1_T3.2_[T9C]_[A10C]],816
5,ACAAACUCUAUAUAUAUUACAAAC (ssRNA) [Id_ii_S3_P3E.3_K3.2_C3.2_[C-2T]_[T-1C]_H3.2_A3.1_F3.1_T3.2_[A10T]],39
6,B1,> 2300
7,B2,> 2300
8,B3,591
9,B4,> 2300
10,B5,2240
11,B6,> 2300
12,B7,> 2300
13,B8,> 2300
14,B9,> 2300
15,B10,> 2300
16,B11,548
17,B12,> 2300
18,B13,> 2300
19,B14,> 2300

row,Binder,Kd [nM]
1,B15,> 2300
2,ACAAACUCUAUAUAUAUCACAAAC (ssRNA) [Id_ii_S3_P3E.3_K3.2_C3.2_[C-2T]_[T-1C]_H3.2_A3.1_F3.1_T3.2_[A10C]],493
3,UCUCUUUGUAUUGUCAUCUCUU (ssRNA) [Ib_S1_P5E.1_K5.1_C5.1_H5.1_A5.1_[A7G]_F5.1_[T9C]_T5.1],140
4,UCUCUUUGUAUUUUCAUCUCUU (ssRNA) [Ic_S1_P5E.1_K5.1_C5.1_H5.1_A5.1_[A7T]_F5.1_[T9C]_T5.1],32.5
5,ACAAACGGUAUAUAUAGAACAAAC (ssRNA) [Id_ii_S3_P3E.3_K3.2_C3.2_[C-2G]_[T-1G]_H3.2_A3.1_F3.1_T3.2_[T9G]],128
6,ACAAACUCUAUAUAUAGCACAAAC (ssRNA) [Id_ii_S3_P3E.3_K3.2_C3.2_[C-2T]_[T-1C]_H3.2_A3.1_F3.1_T3.2_[T9G]_[A10C]],767
7,ACAAACUAUAUAUAUACAACAAAC (ssRNA) [Id_ii_S3_P3E.3_K3.2_C3.2_[C-2T]_[T-1A]_H3.2_A3.1_F3.1_T3.2_[T9C]],205
8,ACAAACGAUAUAUAUACAACAAAC (ssRNA) [Id_ii_S3_P3E.3_K3.2_C3.2_[C-2G]_[T-1A]_H3.2_A3.1_F3.1_T3.2_[T9C]],839
9,ACAAACGUUAUAUAUACCACAAAC (ssRNA) [Id_ii_S3_P3E.3_K3.2_C3.2_[C-2G]_H3.2_A3.1_F3.1_T3.2_[T9C]_[A10C]],1700
10,ACAAACGCUAUAUAUAUCACAAAC (ssRNA) [Id_ii_S3_P3E.3_K3.2_C3.2_[C-2G]_[T-1C]_H3.2_A3.1_F3.1_T3.2_[A10C]],836
11,ACAAACUUUAUAUAUAUUACAAAC (ssRNA) [Id_ii_S3_P3E.3_K3.2_C3.2_[C-2T]_H3.2_A3.1_F3.1_T3.2_[A10T]],34.5
12,ACAAACGAUAUAUAUAGGACAAAC (ssRNA) [Id_ii_S3_P3E.3_K3.2_C3.2_[C-2G]_[T-1A]_H3.2_A3.1_F3.1_T3.2_[T9G]_[A10G]],535
13,ACAAACGAUAUAUAUAAUACAAAC (ssRNA) [Id_ii_S3_P3E.3_K3.2_C3.2_[C-2G]_[T-1A]_H3.2_A3.1_F3.1_T3.2_[T9A]_[A10T]],115
14,ACAAACGCUAUAUAUACUACAAAC (ssRNA) [Id_ii_S3_P3E.3_K3.2_C3.2_[C-2G]_[T-1C]_H3.2_A3.1_F3.1_T3.2_[T9C]_[A10T]],34.2
15,ACAAACGAUAUAUAUAAAACAAAC (ssRNA) [Id_ii_S3_P3E.3_K3.2_C3.2_[C-2G]_[T-1A]_H3.2_A3.1_F3.1_T3.2_[T9A]],1080
16,ACAAACUCUAUAUAUACCACAAAC (ssRNA) [Id_ii_S3_P3E.3_K3.2_C3.2_[C-2T]_[T-1C]_H3.2_A3.1_F3.1_T3.2_[T9C]_[A10C]],771
17,ACAAACUUUAUAUAUAUAACAAAC (ssRNA) [Id_ii_S3_P3E.3_K3.2_C3.2_[C-2T]_H3.2_A3.1_F3.1_T3.2],595
18,UCUCUUUGUAUUCUCAUCUCUU (ssRNA) [Ib_S1_P5E.1_K5.1_C5.1_H5.1_A5.1_[A7C]_F5.1_[T9C]_T5.1],29.8
